This is an account of results in article doi:10.1101/2020.03.08.831909 (2020).

The target in test [1] is OptoMB_(C450V), light-insensitive, His-tagged, purified (Avena sativa, UniProt O49003 408-543, C450V). The test is described as follows: BLI; dark conformation (C450V).
Test [2] addresses His6-OptoMB_(V416I_G528A_N538E) fused to an N-terminus SUMO tag, purified (Avena sativa, UniProt O49003 408-543, V416I | G528A | N538E). The test is described as follows: BLI; light conformation (lit-mimetic mutant).

B1: YFP-SH2, purified (fusion of yellow fluorescent protein and SH2) (domain or fragment)
chain: SLEKHSWYHGPVSRNAAEYLLSSGINGSFLVRESESSPGQRSISLRYEGRVYHYRINTASDGKLYVSSESRFNTLAELVHHHSTVADGLITTLHYPAPKRNKPTVYGVSPNY
In test [1], B1 registered a koff of 0.00753 s⁻¹. In test [2], this molecule came in with a Kd of 21.7 µM and a koff of 0.0489 s⁻¹.
